According to publication PMC10258192:

Target: T1, mEGFP-SRSF2, Q01130
T1 chain: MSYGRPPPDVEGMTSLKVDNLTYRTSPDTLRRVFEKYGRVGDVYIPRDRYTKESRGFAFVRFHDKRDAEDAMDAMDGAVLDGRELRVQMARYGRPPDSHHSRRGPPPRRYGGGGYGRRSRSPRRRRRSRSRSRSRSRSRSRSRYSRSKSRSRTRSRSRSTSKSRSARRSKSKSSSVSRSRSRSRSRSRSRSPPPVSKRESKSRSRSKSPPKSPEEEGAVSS
Assay: SEC-MALS; purified protein, static light scattering after the molecular sieve; before addition of PEG8000
Settings: remark: other sources report otherwise

B1: mEGFP-SRSF2, Q01130 1-221 (natural protein)
chain: T1 chain
  stoichiometry N: 5000
